Test results reported in patent publication US20140271651A1 (AbbVie / Abbott, published 2014).

Experiments:
[1] = molecular target: T1, GP73-hFc (human GP73 amino acids 63 to 400 fused at the C-terminus to human IgG1 Fc) (human); test: SPR Biacore 2000, mAb captured on rabbit anti-mouse IgG, HEK GP73-hFc analyte 0.412-100 nM, 1:1 fit
T1 construct: Expressed in HEK293F, CHO or HepG2 cells; the host is named under assay; also called HEK expressed GP73-hFc; CHO expressed GP73-hFc
T1 chain: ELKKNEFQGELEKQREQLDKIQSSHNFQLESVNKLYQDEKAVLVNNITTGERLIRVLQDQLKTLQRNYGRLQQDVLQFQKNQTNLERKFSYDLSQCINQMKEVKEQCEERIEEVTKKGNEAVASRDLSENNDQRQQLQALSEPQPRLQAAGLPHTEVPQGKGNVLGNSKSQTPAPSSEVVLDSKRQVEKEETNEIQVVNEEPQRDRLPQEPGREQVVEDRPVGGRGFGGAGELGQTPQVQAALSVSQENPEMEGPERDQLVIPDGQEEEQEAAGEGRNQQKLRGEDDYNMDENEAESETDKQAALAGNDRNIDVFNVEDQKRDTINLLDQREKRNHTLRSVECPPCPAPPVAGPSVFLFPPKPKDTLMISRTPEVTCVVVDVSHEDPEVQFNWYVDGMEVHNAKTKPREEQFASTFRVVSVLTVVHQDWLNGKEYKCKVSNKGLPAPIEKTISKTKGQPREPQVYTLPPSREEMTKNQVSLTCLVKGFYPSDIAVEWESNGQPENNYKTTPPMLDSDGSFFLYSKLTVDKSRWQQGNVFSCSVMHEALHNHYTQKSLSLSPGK
Description: (§1) First, an approximately 13,000-15,000 RU rabbit anti-mouse IgG Capture Biosensor was created by amine-coupling rabbit anti-mouse IgG antibody (GE Healthcare) to a CM5 biosensor chip (GE Healthcare) via EDC/NHS/ethanolamine chemistry provided in an Amine Coupling Kit (GE Healthcare) after pre-treating the biosensor with duplicate injections of 100 mM HCl, 50 mM NaOH, and 0.1% SDS. Purified GP73 antibody and antigen (HEK GP73-hFc) were diluted into a running buffer (hereinafter “running buffer”) composed of HBS-EP buffer (GE Healthcare) supplemented with 0.1% BSA and 0.1% CM-Dextran. Each GP73 antibody was diluted to 1 μg/mL. The GP73-hFc antigen was diluted to concentrations of 0.412 to 100 nM using a 3-fold dilution series assuming an oligomeric molecular weight of 490 kDa (Abbott Laboratories).
The GP73-hFc antigen program was as follows. After equilibrating the rabbit anti-mouse IgG Capture Biosensor for 3 min at 5 μL/minute with running buffer, GP73 antibody (7-14 μL) was injected over individual flow cells with one flow cell being left blank as a reference flow cell. The flow cells were washed with running buffer for 3 min at a flow rate of 60 μL/min. 150 μL of HEK293 expressed GP73-hFc antigen at a random concentration was injected across the biosensor. The biosensor was subsequently re-equilibrated with running buffer for 5 min at a flow rate of 60 μL/minute. All biosensor surfaces were regenerated with one 30 μL injection of 10 mM glycine, pH 1.7 (GE Healthcare), at a flow rate of 10 μL/minute. All concentrations of HEK293 expressed antigen were tested in duplicate. The binding kinetics (association and dissociation) were monitored via sensorgrams during antigen injection and running buffer re-equilibration. The sensorgrams were double-referenced and fit to a 1:1 binding model using Scrubber 2.0 software (BioLogic Software Pty Ltd., Australia) to determine association and dissociation rates, as well as overall KD. Standard errors of determined values are reported in parentheses with respect to the smallest number place value.

[2] = molecular target: T2, E. coli expressed human GP73 (amino acids 63 to 400) with C-terminal 6xHis tag (human, UniProt Q8NBJ4 64-401); test: Binds E. coli GP73 (summary table; EIA on coated E. coli GP73)
T2 construct: No human Fc, not glycosylated; also called GP73 produced in E. coli; E. coli GP73
T2 sequence: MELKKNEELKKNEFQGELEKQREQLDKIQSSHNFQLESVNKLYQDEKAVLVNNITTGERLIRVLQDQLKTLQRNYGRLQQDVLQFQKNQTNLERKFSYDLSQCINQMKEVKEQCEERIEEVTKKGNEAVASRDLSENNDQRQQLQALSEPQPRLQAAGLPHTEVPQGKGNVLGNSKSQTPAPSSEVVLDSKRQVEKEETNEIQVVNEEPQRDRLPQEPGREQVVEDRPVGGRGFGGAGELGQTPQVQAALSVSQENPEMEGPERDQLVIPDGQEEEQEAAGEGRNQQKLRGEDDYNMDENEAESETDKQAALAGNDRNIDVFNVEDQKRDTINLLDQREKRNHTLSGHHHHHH
Description: The purified anti-GP73 mAbs were tested for EIA reactivity to human IgG, GP73 produced in E. coli, and GP73-hFc produced in HEK 293 cells. A mouse-human chimeric antibody, GP73 produced in E. coli, and GP73-hFc produced in HEK 293 cells were coated on micro titer plates at approximately 1000 ng/mL and allowed to incubate over night at 4-8° C. After the capture reagent was coated on the solid phase, it was removed and blocked using a BSA/PBS block solution. The wells were washed with distilled water. Purified anti-GP73 and negative control mAbs were added to the blocked plates in serial dilutions starting at 1000 ng/mL and allowed to incubate at room temperature for approximately 30 min. The wells were washed with distilled water. Goat anti-mouse IgG-HRP (Jackson Immunoresearch) was added to the wells at approximately 250 ng/mL and allowed to incubate for approximately 30 min at room temperature. The plates were washed with distilled water and OPD substrate was used as the chromagen to generate signal. Plates were read at 492 nm and the results were analyzed.

[3] = molecular target: T1, GP73-hFc (human GP73 amino acids 63 to …); test: SPR Biacore 2000, mAb captured on rabbit anti-mouse IgG, HEK GP73-hFc analyte 0.412-100 nM, 1:1 fit; standard error 2 × 10^-5, larger than the value; dissociation hardly resolved
Description: as §1
The GP73-hFc antigen program was as follows. After equilibrating the rabbit anti-mouse IgG Capture Biosensor for 3 min at 5 μL/minute with running buffer, GP73 antibody (7-14 μL) was injected over individual flow cells with one flow cell being left blank as a reference flow cell. […] The binding kinetics (association and dissociation) were monitored via sensorgrams during antigen injection and running buffer re-equilibration. […] Standard errors of determined values are reported in parentheses with respect to the smallest number place value.

B1: anti-GP73 monoclonal antibody 1B-4863 (antibody, V domains shown)
VH: QVQLKESGPGLVAPSQSLSITCTVSGFSLTSYGVHWVRQSPGKGLEWLGVIWTGGSTNYNSALMSRLSISKDNSESQVFLKVNSLQTDDTGMYYCARDPGTDYFDYWGQGTTLTVSS
VL: DIVMTQSHKFMSTSIGDRVSISCKASQDVSIDVSWYQQKPGQSPTLLIYSASYRYIGVPDRFTGSGSGTAFTFTISSVQAEDLAIYYCQQHFTTPLTFGAGTKLELKR
notes: Biotin labelled in some assays; also called mAb 1B-4863; 1B-4863-Bt
B1 was tested, and the Kd [1] was 0.12 nM, the koff [1] was 0.00025 s⁻¹ and the kon [1] was 2.06e+06 M⁻¹ s⁻¹.

B2: anti-GP73 monoclonal antibody 1B-3440 (antibody, V domains shown)
VH: EVQLVETGGGLVQPKGSLKLSCAASGFTFNTNAMNWVRQAPGKGLEWVARIRTKRYNYTTFYADSVKDRFTISRDDSQSMLFLQMNNLKTEDTAMYYCVTGGTGTFDYWGQGTTLTVSS
VL: EIVLTQSPTTMPASPGEKVTFTCSASSGISSNYLHWYQLKPGFSPKLLIYRTSNLASGVPARFSGGGSGTSYSLTIGTMEAEDVATYYCQQGFSIPLTFGAGTKLELKR
notes: Biotin labelled in some assays; also called mAb 1B-3440; 1B-3440-Bt
In the case of B2, the binding result [2] is reported as “binds”, the Kd [1] is reported as 0.091 nM and the koff [1] is reported as 0.00018 s⁻¹. For the same binder, the kon [1] was 1.98e+06 M⁻¹ s⁻¹.

B3: anti-GP73 monoclonal antibody 1B-4971 (antibody, V domains shown)
VH: QVQLQQSGPALVKPGASVKMSCKASGYTFTNYVIHWVKQKPGQGLERIGYIWPYNDGTKFNEKFKGKATLTSDKSSSTAYMELSSLTSEDSAVYYCSSQQLAYWGQGTTLTVSS
VL: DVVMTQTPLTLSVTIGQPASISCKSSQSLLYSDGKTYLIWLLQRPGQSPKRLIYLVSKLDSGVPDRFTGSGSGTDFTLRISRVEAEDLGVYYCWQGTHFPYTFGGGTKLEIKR
notes: Biotin labelled in some assays; also called mAb 1B-4971; 1B-4971-Bt
B3 was tested, and the koff [3] was no more than 1e-05 s⁻¹, the binding result [2] was “binds” and the Kd [1] was no more than 0.002 nM. For the same binder, the kon [1] was 3.9e+06 M⁻¹ s⁻¹.
